The values that follow are results of earlier work, collected in PMC7312390.

One series concerns the target His57 (UniProt position 57, VVTAAHCGVTT). As to conditions: free (apo) chymotrypsin.
Another series deals with Cys25 (UniProt position 158, GSCGSCWAFSA). As to conditions: free cysteine protease (Cys/His ion pair in the apo state).

For orientation: pKa means the pH at which an ionisable group is half protonated. Consider “chymotrypsin (not stated in the article (PDB 4CHA is bovine, Bos taurus, alpha-chymotrypsin))”, for which the pKa in the series with His57 was 7.5. As to “papain (Carica papaya (not stated in the article; inferred))”, in the series with Cys25, the pKa was 3.3.
